Results reported in patent US10737081B2, “Painless and patchless shooting microstructure” (JUVIC INC., priority 2013, dated 2020).

How the values were obtained:
diabetogenic mice = assay: In vivo delivery efficiency test: plasma glucose levels in diabetogenic mice; details: 0.2 IU insulin, subcutaneous injection
Description: In this experiment, male C57BL/6 mice (7 to 8 week-old, OrientBio) were used. Animal experiments were conducted according to the Guide for the Care and Use of Laboratory Animals by the Severance Hospital Ethics Committee (Reference No.: 09-013, College of Pharmacy, Yonsei University, Korea). […] For successful diabetes induction, the blood glucose concentrations of all the mice were measured using a OneTouch Verio IQ system. […] Diabetogenic mice were divided into four groups, as follows: (a) an untreated group (a negative control); (b) a subcutaneously injected group (0.2 IU, a positive control); […] The mice were fasted during an experiment period, and freely fed with water. […] After 6 hours of the treatment, blood samples (0.1 ml) were taken from wounded tail vein areas every one hour. […] The plasma glucose levels per hour in each group were measured using a glucose CII-Test kit. The plasma insulin concentrations were measured using an insulin ELISA kit (ALPCO). To examine the in vivo delivery efficiency by DMN patch and subcutaneous injection (SC) methods and through the microlancer, insulin was administered to diabetogenic mice using each of the methods, and changes in blood glucose levels were measured. […] Insulin was administered using each of the methods, and changes in plasma glucose levels in the diabetogenic mice were measured after the elapse of 6 hours (see FIG. 17B).

[1] = In vivo delivery efficiency test: plasma insulin concentrations in diabetogenic mice; details: 0.2 IU insulin, subcutaneous injection
Description: In this experiment, male C57BL/6 mice (7 to 8 week-old, OrientBio) were used. Animal experiments were conducted according to the Guide for the Care and Use of Laboratory Animals by the Severance Hospital Ethics Committee (Reference No.: 09-013, College of Pharmacy, Yonsei University, Korea). The mice were anesthetized with Avertin (2,2,2-tribromoethanol, Sigma-Aldrich), and 50 mg/kg of streptozotocin in a sodium citrate buffer (pH=4.5) was intravenously injected into the mice to induce diabetes. For successful diabetes induction, the blood glucose concentrations of all the mice were measured using a OneTouch Verio IQ system.
Diabetogenic mice were divided into four groups, as follows: (a) an untreated group (a negative control); (b) a subcutaneously injected group (0.2 IU, a positive control); (c) a patch-treated group (0.2 IU insulin-loaded DMNs); and (d) a microlancer-treated group (0.2 IU insulin-loaded DMNs) (n=5 per group). The mice were fasted during an experiment period, and freely fed with water. The back regions of the mice were shaved using an electric shaver, and 0.2 IU of insulin was administered by means of a DMN patch through a microlancer or by subcutaneous injection. […] The plasma glucose levels per hour in each group were measured using a glucose CII-Test kit. The plasma insulin concentrations were measured using an insulin ELISA kit (ALPCO).

insulin: Humalog insulin purchased from Eli Lilly; 0.2 IU subcutaneously injected as positive control
time of lowest blood glucose level compared to insertion through the microlancer (diabetogenic mice): an hour earlier | maximum plasma insulin concentration [1]: 156 μIU/ml | time of peaks for the plasma insulin concentration [1]: an hour
